Experimental data from US20210130491A1 (ONCOTAG DIAGNOSTICS, published 2021).
One block for each binder: values may come before it.

Key:
Assay in all cases: ELISA, protein coated at 1 ug/ml
His-KRS = biological target: T1, His-KRS (UniProt Q15046 1-597)
T1 construct: not shown: His tag
Description: (§1) Each well of 96 well plates (Corning 3690 flat bottom, 96-well half-area plates) was coated with different kinds of ARS proteins (His-MRS, MRS full, DX2 tag free, 34S-DX2, 34S-AIMP2, His-CRS, His-AIMP1, His-GRS, His-WRS, His-KRS) at the concentration of 1 μg/ml. 1E8 and 8A12 antibodies at a concentration of 500 ng/ml were added onto the 96 well plates coated with ARS proteins and allowed to react for 1 hour. Thereafter, HRP-conjugated anti-mouse IgG secondary antibody was added and reacted for 1 hour. ELISA was performed and absorbance was measured at 450 nm. TMB (3,3′,5,5′-tetramethylbenzidine) was used as substrate.

His-CRS = biological target: T2, His-CRS (UniProt P49589 1-748)
T2 construct: not shown: His tag
T2 sequence (looked up): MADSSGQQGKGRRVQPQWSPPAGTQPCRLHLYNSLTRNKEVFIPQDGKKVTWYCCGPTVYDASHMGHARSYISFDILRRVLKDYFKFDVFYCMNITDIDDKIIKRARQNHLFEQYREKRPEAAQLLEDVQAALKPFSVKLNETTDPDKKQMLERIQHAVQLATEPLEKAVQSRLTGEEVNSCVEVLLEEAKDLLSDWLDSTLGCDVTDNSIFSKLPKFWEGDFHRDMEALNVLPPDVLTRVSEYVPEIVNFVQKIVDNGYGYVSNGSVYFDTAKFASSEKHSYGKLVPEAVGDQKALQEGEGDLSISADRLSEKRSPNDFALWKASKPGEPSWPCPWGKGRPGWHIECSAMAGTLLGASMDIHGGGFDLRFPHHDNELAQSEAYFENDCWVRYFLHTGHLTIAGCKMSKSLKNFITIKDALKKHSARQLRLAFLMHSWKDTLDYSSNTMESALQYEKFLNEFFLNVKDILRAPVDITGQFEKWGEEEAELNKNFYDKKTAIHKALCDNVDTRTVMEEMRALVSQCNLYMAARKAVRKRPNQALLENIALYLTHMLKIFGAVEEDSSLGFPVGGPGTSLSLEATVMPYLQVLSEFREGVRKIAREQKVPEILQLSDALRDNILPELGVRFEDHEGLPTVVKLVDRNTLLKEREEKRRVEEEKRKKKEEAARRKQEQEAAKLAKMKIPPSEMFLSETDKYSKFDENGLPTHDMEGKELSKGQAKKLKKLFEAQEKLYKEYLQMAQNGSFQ
Description: as §1

His-GRS = biological target: T3, His-GRS (UniProt P41250 55-739)
T3 construct: not shown: His tag
T3 sequence (looked up): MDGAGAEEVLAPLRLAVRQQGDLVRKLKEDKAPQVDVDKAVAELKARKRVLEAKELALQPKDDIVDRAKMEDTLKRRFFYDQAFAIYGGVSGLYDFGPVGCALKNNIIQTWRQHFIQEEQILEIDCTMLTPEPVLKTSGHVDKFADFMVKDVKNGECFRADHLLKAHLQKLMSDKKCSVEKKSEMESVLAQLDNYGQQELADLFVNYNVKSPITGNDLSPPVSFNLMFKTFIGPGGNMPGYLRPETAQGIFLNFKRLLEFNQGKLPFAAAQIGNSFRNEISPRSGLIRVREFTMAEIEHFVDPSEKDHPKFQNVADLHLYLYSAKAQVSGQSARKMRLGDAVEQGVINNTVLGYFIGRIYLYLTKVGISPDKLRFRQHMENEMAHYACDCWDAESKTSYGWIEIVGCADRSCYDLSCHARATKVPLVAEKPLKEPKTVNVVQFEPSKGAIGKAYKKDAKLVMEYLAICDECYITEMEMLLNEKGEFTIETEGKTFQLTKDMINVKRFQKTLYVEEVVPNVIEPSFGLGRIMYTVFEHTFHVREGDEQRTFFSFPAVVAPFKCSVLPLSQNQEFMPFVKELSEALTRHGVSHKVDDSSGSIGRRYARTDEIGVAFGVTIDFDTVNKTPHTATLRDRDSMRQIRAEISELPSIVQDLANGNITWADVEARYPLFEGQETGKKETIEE
Description: as §1

His-WRS = biological target: T4, His-WRS (UniProt P23381 1-471, limits assumed)
T4 construct: not shown: His tag
T4 sequence (looked up): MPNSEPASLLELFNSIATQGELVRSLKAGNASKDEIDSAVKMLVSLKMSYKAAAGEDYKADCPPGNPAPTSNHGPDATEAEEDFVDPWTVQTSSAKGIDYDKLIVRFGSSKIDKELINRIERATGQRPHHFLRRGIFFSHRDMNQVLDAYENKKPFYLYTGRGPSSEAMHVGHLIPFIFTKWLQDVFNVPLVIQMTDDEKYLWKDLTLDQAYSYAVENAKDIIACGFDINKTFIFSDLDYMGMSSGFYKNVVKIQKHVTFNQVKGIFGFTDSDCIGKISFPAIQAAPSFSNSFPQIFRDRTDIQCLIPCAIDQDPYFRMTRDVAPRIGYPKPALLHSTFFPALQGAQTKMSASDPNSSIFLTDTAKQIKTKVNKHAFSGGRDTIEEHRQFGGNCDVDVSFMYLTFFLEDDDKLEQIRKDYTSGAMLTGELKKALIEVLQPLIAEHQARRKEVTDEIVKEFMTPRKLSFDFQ
Description: as §1

His-AIMP1 = biological target: T5, His-AIMP1 (UniProt Q12904 1-312, limits assumed)
T5 construct: not shown: His tag
T5 sequence (looked up): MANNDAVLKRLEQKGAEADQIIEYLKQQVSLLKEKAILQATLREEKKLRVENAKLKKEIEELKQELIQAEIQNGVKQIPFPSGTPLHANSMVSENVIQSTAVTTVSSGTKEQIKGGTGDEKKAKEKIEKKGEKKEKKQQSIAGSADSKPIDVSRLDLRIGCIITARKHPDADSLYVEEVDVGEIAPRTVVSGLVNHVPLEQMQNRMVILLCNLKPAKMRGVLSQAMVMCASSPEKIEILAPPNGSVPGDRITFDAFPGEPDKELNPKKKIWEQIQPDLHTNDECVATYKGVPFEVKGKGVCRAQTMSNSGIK
Description: as §1

34S-AIMP2 = biological target: T6, 34S-AIMP2 (UniProt Q13155 1-320)
T6 construct: not shown: '34S' tag or fusion partner
T6 sequence (looked up): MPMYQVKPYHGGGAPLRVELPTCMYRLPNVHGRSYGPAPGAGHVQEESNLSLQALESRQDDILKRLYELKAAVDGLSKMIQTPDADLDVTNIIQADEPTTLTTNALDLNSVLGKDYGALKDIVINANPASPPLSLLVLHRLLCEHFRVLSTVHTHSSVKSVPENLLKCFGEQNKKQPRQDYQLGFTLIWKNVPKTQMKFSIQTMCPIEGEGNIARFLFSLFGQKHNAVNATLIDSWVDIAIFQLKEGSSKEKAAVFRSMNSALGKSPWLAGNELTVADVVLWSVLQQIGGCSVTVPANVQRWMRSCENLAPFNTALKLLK
Description: as §1

T1 sequence (Q15046 whole entry): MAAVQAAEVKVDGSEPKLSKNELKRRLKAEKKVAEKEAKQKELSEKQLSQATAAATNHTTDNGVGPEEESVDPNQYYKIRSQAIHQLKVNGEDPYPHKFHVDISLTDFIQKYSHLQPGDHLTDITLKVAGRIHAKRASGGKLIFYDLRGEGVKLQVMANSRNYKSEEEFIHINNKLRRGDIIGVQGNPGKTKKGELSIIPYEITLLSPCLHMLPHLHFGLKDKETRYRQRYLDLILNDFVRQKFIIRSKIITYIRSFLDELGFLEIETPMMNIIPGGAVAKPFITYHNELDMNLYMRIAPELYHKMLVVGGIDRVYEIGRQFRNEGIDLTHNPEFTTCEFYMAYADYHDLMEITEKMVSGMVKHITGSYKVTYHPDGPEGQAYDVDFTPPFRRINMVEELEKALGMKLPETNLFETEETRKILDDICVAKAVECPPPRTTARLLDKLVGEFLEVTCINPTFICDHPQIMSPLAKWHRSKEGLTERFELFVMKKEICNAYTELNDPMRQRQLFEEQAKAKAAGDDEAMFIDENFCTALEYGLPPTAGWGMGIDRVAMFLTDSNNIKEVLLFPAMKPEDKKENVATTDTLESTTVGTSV

binding result (His-KRS): no binding (tested: 500 ng/ml) | binding result (His-CRS): no binding (tested: 500 ng/ml) | binding result (His-GRS): no binding (tested: 500 ng/ml) | binding result (His-WRS): no binding (tested: 500 ng/ml) | binding result (His-AIMP1): no binding (tested: 500 ng/ml) | binding result (34S-AIMP2): no binding (tested: 500 ng/ml)
B1: 8A12 antibody (8A12 IgG) (antibody, V domains shown)
VH: DVKLQESGPGLVKPSQSLSLTCTVTGYSITSEYAWTWIRQFPGNKLEWMGYINYNGNTNLNPSLKSRISIIRDTSKNQFFLQLNSVTTEDTATYYCARSLWPRGWFAYWGQGTLVTVSA
VL: DIQMTQSPSSMYASLGERVTITCKASQDINSYLSWFQQKPGKSPKTLMYRANRLVDGVPSRFSGSGSGQDYSLTISSLEYEDMGIYYCLQYDEFPRTFGGGTKLEIKA
notes: Mouse monoclonal from hybridoma clone 8A12; also called 8Al2; anti-MRS antibody (8A12)

binding result (His-KRS): no binding (tested: 500 ng/ml) | binding result (His-CRS): no binding (tested: 500 ng/ml) | binding result (His-GRS): no binding (tested: 500 ng/ml) | binding result (His-WRS): no binding (tested: 500 ng/ml) | binding result (His-AIMP1): no binding (tested: 500 ng/ml) | binding result (34S-AIMP2): no binding (tested: 500 ng/ml)
B2: 1E8 antibody (1E8 IgG) (antibody, V domains shown)
VH: DVKLQESGPGLVNPSQSLSLTCTVTGYSITSDYAWNWIRQFPGNKLEWMGYISYSGRTSYKSSLKSRISITRDTSKNQFFLELNSVTTEDTATYYCARDYGNFVGYFDVWGAGTTVTVSS
VL: DIVMTQSPSSLAVSVGEKVTMSCKSSQSLLYSSNQKNYLAWYQQKPGQSPKLLIYWASTRESGVPDRFTGSGSGTEFTLTISSVKAEDLAVYYCQQYYSYPTFGGGTKLEIKA
notes: Mouse monoclonal from hybridoma clone 1E8; also called IE8; anti-MRS antibody (1E8)
